This assay addresses T1, GST-USP7 (UniProt Q93009 1-1102).
T1 construct: USP7, cloned in pGEX-4T-1; also called GST-tagged USP7; source: plasmid in pGEX-4T-1
As to the kind of experiment: pull-down; purified DACH1 incubated with GST or GST-USP7 conjugated with GSH-Sepharose, followed by Coomassie blue staining. The following applies: both partners purified.

T1 sequence (Q93009 whole entry): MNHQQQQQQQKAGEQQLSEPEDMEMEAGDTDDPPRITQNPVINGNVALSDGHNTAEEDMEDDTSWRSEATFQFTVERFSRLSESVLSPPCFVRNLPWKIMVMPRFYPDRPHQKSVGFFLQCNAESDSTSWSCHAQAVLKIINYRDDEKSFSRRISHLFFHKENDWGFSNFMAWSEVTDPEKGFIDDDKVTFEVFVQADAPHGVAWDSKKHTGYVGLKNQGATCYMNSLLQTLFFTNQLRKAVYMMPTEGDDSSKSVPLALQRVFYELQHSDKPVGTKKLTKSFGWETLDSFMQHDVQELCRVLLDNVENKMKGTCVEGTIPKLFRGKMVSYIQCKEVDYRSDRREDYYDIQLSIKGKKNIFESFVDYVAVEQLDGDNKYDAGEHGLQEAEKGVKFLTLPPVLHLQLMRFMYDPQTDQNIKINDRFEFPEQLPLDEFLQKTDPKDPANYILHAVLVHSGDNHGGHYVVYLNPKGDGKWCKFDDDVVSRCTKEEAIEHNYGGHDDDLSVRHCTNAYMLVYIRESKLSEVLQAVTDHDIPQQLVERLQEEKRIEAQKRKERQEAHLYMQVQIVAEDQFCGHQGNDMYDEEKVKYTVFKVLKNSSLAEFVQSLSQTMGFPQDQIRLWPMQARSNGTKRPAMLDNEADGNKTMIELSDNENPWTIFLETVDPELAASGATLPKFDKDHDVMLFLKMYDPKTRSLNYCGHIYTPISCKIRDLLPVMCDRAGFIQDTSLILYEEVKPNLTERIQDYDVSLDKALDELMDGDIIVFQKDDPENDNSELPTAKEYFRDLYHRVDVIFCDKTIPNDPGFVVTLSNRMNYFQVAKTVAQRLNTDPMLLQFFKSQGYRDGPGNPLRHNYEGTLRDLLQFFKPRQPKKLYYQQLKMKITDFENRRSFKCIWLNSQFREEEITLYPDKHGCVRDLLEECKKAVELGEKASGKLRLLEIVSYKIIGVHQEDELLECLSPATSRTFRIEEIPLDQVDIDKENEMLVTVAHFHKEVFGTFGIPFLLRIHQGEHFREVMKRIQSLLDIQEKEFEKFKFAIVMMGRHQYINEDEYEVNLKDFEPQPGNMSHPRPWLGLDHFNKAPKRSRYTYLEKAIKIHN

B1: Myc-DACH1-FL (natural protein, human, UniProt Q9UI36 1-758, looked up)
chain: MAVPAALIPPTQLVPPQPPISTSASSSGTTTSTSSATSSPAPSIGPPASSGPTLFRPEPIASAAAAAATVTSTGGGGGGGGSGGGGGSSGNGGGGGGGGGGSNCNPNLAAASNGSGGGGGGISAGGGVASSTPINASTGSSSSSSSSSSSSSSSSSSSSSSSSCGPLPGKPVYSTPSPVENTPQNNECKMVDLRGAKVASFTVEGCELICLPQAFDLFLKHLVGGLHTVYTKLKRLEITPVVCNVEQVRILRGLGAIQPGVNRCKLISRKDFETLYNDCTNASSRPGRPPKRTQSVTSPENSHIMPHSVPGLMSPGIIPPTGLTAAAAAAAAATNAAIAEAMKVKKIKLEAMSNYHASNNQHGADSENGDMNSSVGSSDGSWDKETLPSSPSQGPQASITHPRMPGARSLPLSHPLNHLQQSHLLPNGLELPFMMMPHPLIPVSLPPASVTMAMSQMNHLSTIANMAAAAQVQSPPSRVETSVIKERVPDSPSPAPSLEEGRRPGSHPSSHRSSSVSSSPARTESSSDRIPVHQNGLSMNQMLMGLSPNVLPGPKEGDLAGHDMGHESKRMHIEKDETPLSTPTARDSLDKLSLTGHGQPLPPGFPSPFLFPDGLSSIETLLTNIQGLLKVAIDNARAQEKQVQLEKTELKMDFLRERELRETLEKQLAMEQKNRAIVQKRLKKEKKAKRKLQEALEFETKRREQAEQTLKQAASTDSLRVLNDSLTPEIEADRSGGRTDAERTIQDGRLYLKTTVMY
notes: DACH1, human, full length (FL), cloned in pcDNA3.1 or a lentiviral plasmid; the text calls it Myc-tagged DACH1; also called Myc-tagged DACH1; Myc-tagged FL DACH1; source: HEK293T or SW480, transfected, in lysate; HCT8, stably expressed, whole cell extracts
In the case of B1, the binding result was “binds”.

The values are drawn from paper PMC12089419, “Synergistic regulation of DACH1 stability by acetylation and deubiquitination promotes colorectal cancer progression” (Cell Death & Disease, 2025).
